T1: LAGE3 (full-length, subunit of the recombinant GON7/LAGE3/OSGEP complex) (human, UniProt Q14657 1-143)
T1 construct: LAGE3, human, KEOPS subunit (homolog of Pcc1); full-length protein used for all structural work; no electron density for the 60 N-terminal residues; source: recombinant, co-expressed with the other KEOPS subunits, purified (size exclusion chromatography, NiIDA); details in Supplementary Methods
T1 sequence (looked up): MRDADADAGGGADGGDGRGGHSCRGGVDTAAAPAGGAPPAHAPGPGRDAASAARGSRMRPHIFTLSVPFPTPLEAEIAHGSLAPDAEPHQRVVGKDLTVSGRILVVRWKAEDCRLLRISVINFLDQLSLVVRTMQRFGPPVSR


Biological target: T1, LAGE3 (full-length, subunit of the …)
Assay: SEC-SAXS; SAXS on samples eluting from an online size exclusion HPLC column; 20 mM MES pH 6.5, 200 mM NaCl, 5 mM 2-mercaptoethanol; purified recombinant GON7/LAGE3/OSGEP complex
Settings: both partners purified

| stoichiometry N | Binder |
| --- | --- |
| 1 | OSGEP (full-length, subunit of the recombinant GON7/LAGE3/OSGEP complex) (enzyme, human, UniProt Q9NPF4 1-335, looked up, OSGEP, human, catalytic subunit of the KEOPS complex (homolog of Kae1); full-length protein used for all structural work; source: recombinant, co-expressed with the other KEOPS subunits, purified (size exclusion chromatography, NiIDA); details in Supplementary Methods) MPAVLGFEGSANKIGVGVVRDGKVLANPRRTYVTPPGTGFLPGDTARHHRAVILDLLQEALTESGLTSQDIDCIAYTKGPGMGAPLVSVAVVARTVAQLWNKPLVGVNHCIGHIEMGRLITGATSPTVLYVSGGNTQVIAYSEHRYRIFGETIDIAVGNCLDRFARVLKISNDPSPGYNIEQMAKRGKKLVELPYTVKGMDVSFSGILSFIEDVAHRMLATGECTPEDLCFSLQETVFAMLVEITERAMAHCGSQEALIVGGVGCNVRLQEMMATMCQERGARLFATDERFCIDNGAMIAQAGWEMFRAGHRTPLSDSGVTQRYRTDEVEVTWRD |
| 1 | GON7 (full-length, subunit of the recombinant GON7/LAGE3/OSGEP complex) (natural protein, human, UniProt Q9BXV9 1-100, looked up, GON7 (alias C14orf142), human, fifth subunit of the KEOPS complex; full-length protein used for all structural work; only residues 1-20 and 25-50 are seen in the crystal; also called C14orf142; GON7-his; source: recombinant, co-expressed with the other KEOPS subunits, purified (size exclusion chromatography, NiIDA); details in Supplementary Methods) MELLGEYVGQEGKPQKLRVSCEAPGDGDPFQGLLSGVAQMKDMVTELFDPLVQGEVQHRVAAAPDEDLDGDDEDDAEDENNIDNRTNFDGPSAKRPKTPS |
